In the RNAGym collection of RNA variant scans (doi:10.7554/elife.90254):

B1: LINE1-mini (parent)
chain: GGCAGAGCUCAACACAGCGUGGCAAAGUGGCUGUGGCUAGACUGCC

Variants of: B1
Test: self-cleavage, relative activity (ratio to wild type); higher = more cleavage; in vitro, sequencing; the parent is a self-cleaving ribozyme
For GGCAGAGCUCACCACAGCGUGGCAAAGUGGCUGGGGCUAGACUGCC [A12C U34G], the self-cleavage was 0.02. For GCCAUAGCUCAACACAGCGUGGCAAAGUGGCUGUGGCUAGACUGCC [G2C G5U], the self-cleavage was 0.03. For GGCAGAGCACAACACAGCGUGGCAAAGUGGCUGUGGCUAGACUGCC [U9A], the self-cleavage was 0.17. For GGCAGAGCUCAACACAGCGUGGUCAAGUGGCUGUGGCUAGACUGCC [C23U A24C], the self-cleavage was 0.71. GGCAGAGCUUAACACAGCGUGGCAAAGUGGCUGUGGCUAGCCUGCC [C10U A41C] showed a self-cleavage of 0.03. With GGCAGAGCUCAAAACAGCGUGGAAAAGUGGCUGUGGCUAGACUGCC [C13A C23A] the self-cleavage was 0.16. In the case of GGCAGAGCUCAACACAGCGGGGCAAAGUUGCUGUGGCUAGACUGCC [U20G G29U], the self-cleavage is reported as 0.48. For GGCAGAGUUCAACAGAGCGUGGCAAAGUGGCUGUGGCUAGACUGCC [C8U C15G], the self-cleavage was 0.09. With GGCAGAGCCCAACACAGCGUGGCAAAGUGGCUUUGGCUAGACUGCC [U9C G33U] the self-cleavage was 0.03. Work on GGCAGAACUGAACACAGCGUGGCAAAGUGGCUGUGGCUAGACUGCC [G7A C10G] yielded a self-cleavage of 0.02. Work on GGCAGAGCUCAACACAGCGUGGCAAAGUGGCUGUGGCUAGGCUCCC [A41G G44C] yielded a self-cleavage of 0.05. GGCAGAGCUCAACACAGCGCUGCAAAGUGGCUGUGGCUAGACUGCC [U20C G21U] showed a self-cleavage of 0.45. GGCAGAGCUCAACACAGCGUGGCCAAGUGGCUGUGGCCAGACUGCC [A24C U38C] gave a self-cleavage of 0.31. For GGCAGAGGUCAACACAGCGUGGCAAAGUGGCUGGGGCUAGACUGCC [C8G U34G], the self-cleavage was 0.08. Work on GGCAGAGCUCAACACAGCGUGGAAAAGUGGCUGUGGCUAGACAGCC [C23A U43A] yielded a self-cleavage of 0.1. For GGCAGAGAUCAACACAGCGAGGCAAAGUGGCUGUGGCUAGACUGCC [C8A U20A], the self-cleavage was 0.14. GGCAGGGCUCAACACAGCGCGGCAAAGUGGCUGUGGCUAGACUGCC [A6G U20C] gave a self-cleavage of 0.1. Variant GGCAGAGCUCAACACUGCGUGGCAAAGUGGCUGUGUCUAGACUGCC [A16U G36U] has a self-cleavage of 0.06. In the case of GGCAGAGCUCACCACAGCGUGGCAAAGUAGCUGUGGCUAGACUGCC [A12C G29A], the self-cleavage is reported as 0.01. Variant GGCAGAGCUCGACACAGCGUGGCAAAGUGGCUGUGGCUAGAUUGCC [A11G C42U] has a self-cleavage of 0.01. In the case of GGCAGAGCUCAACACAGCCUGGCAAAGUGGCUGUGGCUCGACUGCC [G19C A39C], the self-cleavage is reported as 0.05. In the case of GGCAGAGCGCAACACAGCGUGGCAAAGUGGCUGUGACUAGACUGCC [U9G G36A], the self-cleavage is reported as 0.61. With GGCAGAGCGCAACACAGCGUGGCAAAGUGGCUGUGGCUAGACUGCG [U9G C46G] the self-cleavage was 0.05. Variant GGCGGAGCUCAACACAGCUUGGCAAAGUGGCUGUGGCUAGACUGCC [A4G G19U] has a self-cleavage of 0.56. GGCACAGCUCAACACAGCGUGGCAAAGUGGCUGUGGCUAGACUGAC [G5C C45A] showed a self-cleavage of 0.05. GGCAGAGCUCAACACAGCGGGUCAAAGUGGCUGUGGCUAGACUGCC [U20G G22U] gave a self-cleavage of 0.51. GGCUGAGCUCAACACAGCGUGGCAAAUUGGCUGUGGCUAGACUGCC [A4U G27U] gave a self-cleavage of 0.14. GGCAGAGCUCAACACAGCGUGGCAAAGUGGCUUUGGCUAGACUGCG [G33U C46G] gave a self-cleavage of 0.07. In the case of GGCUGAGCUCAACACAGCGUCGCAAAGUGGCUGUGGCUAGACUGCC [A4U G21C], the self-cleavage is reported as 0.24. For GGCAGAGCUCAACACAGUGUGGCAAAGAGGCUGUGGCUAGACUGCC [C18U U28A], the self-cleavage was 0.86. In the case of GGCAGAGCUCAACACAGCGUGGCGACGUGGCUGUGGCUAGACUGCC [A24G A26C], the self-cleavage is reported as 1.06. Work on GGCCGAGAUCAACACAGCGUGGCAAAGUGGCUGUGGCUAGACUGCC [A4C C8A] yielded a self-cleavage of 0.32. Work on GGUAGAGCUCAACACAGCGUGGCAAAGUUGCUGUGGCUAGACUGCC [C3U G29U] yielded a self-cleavage of 0.34. GGCAGAGCUCCACACAGCGUGGCAAAGUCGCUGUGGCUAGACUGCC [A11C G29C] gave a self-cleavage of 0.05. For GGCAGAGCUCAACACAGCGUGGCAAAGCGGCUAUGGCUAGACUGCC [U28C G33A], the self-cleavage was 0.14. For GGAAGAGCUCAACACAGCGUGGCAAAGUGGCCGUGGCUAGACUGCC [C3A U32C], the self-cleavage was 0.31. GGCAGAGCUCAACACAGCGUGUCAAAGUGGCUAUGGCUAGACUGCC [G22U G33A] gave a self-cleavage of 0.63. Variant GGCAAAGCUCAACACAGCGUGGCAAAGUGGCUGUGGCUAGACGGCC [G5A U43G] has a self-cleavage of 0.86. Work on GGCAGAGCUCAACACAGCGUGCCAAACUGGCUGUGGCUAGACUGCC [G22C G27C] yielded a self-cleavage of 0.44. GGCAGAGCUCAGCACAGCGUGGCAAAGUGGCUGUGGCUAGACUGAC [A12G C45A] gave a self-cleavage of 0.1. GGAAGAGCUCAACACAGCGGGGCAAAGUGGCUGUGGCUAGACUGCC [C3A U20G] showed a self-cleavage of 0.31. GGCUGAGCUCAACACAGCGUGGCAUAGUGGCUGUGGCUAGACUGCC [A4U A25U] showed a self-cleavage of 0.84. In the case of GGCAGAGCUCAACACAGCGUGUCAACGUGGCUGUGGCUAGACUGCC [G22U A26C], the self-cleavage is reported as 1.53. GGCAGAGCUCAGCACAGCGUGGCAAGGUGGCUGUGGCUAGACUGCC [A12G A26G] showed a self-cleavage of 0.03. Variant GGCAGAGCUCAACGCAGCGUGGCAAAGUGGCUGUCGCUAGACUGCC [A14G G35C] has a self-cleavage of 0.05. Work on GGCACAGCUCAACACAGCGUGGCAAAGUGGCUGUGCCUAGACUGCC [G5C G36C] yielded a self-cleavage of 0.06. In the case of GGCAGAGCUUAACACAGCGUGGCAAAGUGGUUGUGGCUAGACUGCC [C10U C31U], the self-cleavage is reported as 0.54. Variant GGCAAAACUCAACACAGCGUGGCAAAGUGGCUGUGGCUAGACUGCC [G5A G7A] has a self-cleavage of 0.35. Work on GGCAUAGCUCAACACAGCGUGGCAAAGUGGCUGUGGCUAGACAGCC [G5U U43A] yielded a self-cleavage of 0.08. Work on GGCAGAGCUCAACACAGCGUGGCAAAGUCGCUGAGGCUAGACUGCC [G29C U34A] yielded a self-cleavage of 0.28. In the case of GGCAGAGCUCAACACAGCGUGGCAAAGUGGCCGUGGCUAGACUGAC [U32C C45A], the self-cleavage is reported as 0.2. Work on GGCAGAGCUCGACACAGCGUGGCAAAGUGGCUGUGGCUAGACUGUC [A11G C45U] yielded a self-cleavage of 0.03. GGCCGAGCUCAACACAGCGUGGCAAAGUGGCUGUGGCUAGACGGCC [A4C U43G] showed a self-cleavage of 0.17. GGCAGAGCUCAACACAGCGUGGCAAAGUGGCAGUGACUAGACUGCC [U32A G36A] gave a self-cleavage of 0.06. Variant GGCAGAGCUCAACAUAGCGUGACAAAGUGGCUGUGGCUAGACUGCC [C15U G22A] has a self-cleavage of 1.21. Work on GGCAGAGCUCAACACUGCGUGGCAAAGUGGCUUUGGCUAGACUGCC [A16U G33U] yielded a self-cleavage of 0.14.
